Results as given in patent US20250090583A1.

How the values were obtained:
[1] = biological target: MART-1 peptide … (ELA) presented by HLA-A2 on peptide-pulsed T2 cells; test: cell-based or functional assay
[2] = biological target: CD3 of the TCR-CD3 complex on human T cells (human) (UniProt P07766); test: cell-based or functional assay

NFAT-GFP in Jurkat cells co-cultured overnight with ELA-pulsed T2 cells, against WT Jkt-DMF5 [1] | NFAT-GFP in Jkt-DMF5FATADALN cells co-cultured with Raji (CD19+) cells and blinatumomab, against WT Jkt-DMF5 [2] | NFAT-GFP in Jkt-DMF5GGGSGSG cells co-cultured with Raji (CD19+) cells and blinatumomab, against WT Jkt-DMF5 [2] | Substance
50 % reduction |  |  | DMF5 TCR with alpha chain connecting peptide motif mutated to GGGSGSG
 | < 80 % reduction | < 80 % reduction | blinatumomab (bispecific antibody)
